T1: human CD39 (Accession No. NM_001776.6) expressed on cells (human, UniProt P49961 1-510)
T1 construct: whole, on cells; On Jurkat, 293T or SK-MEL28 cells; also called Jurkat/CD39; 293T/CD39
T1 sequence (looked up): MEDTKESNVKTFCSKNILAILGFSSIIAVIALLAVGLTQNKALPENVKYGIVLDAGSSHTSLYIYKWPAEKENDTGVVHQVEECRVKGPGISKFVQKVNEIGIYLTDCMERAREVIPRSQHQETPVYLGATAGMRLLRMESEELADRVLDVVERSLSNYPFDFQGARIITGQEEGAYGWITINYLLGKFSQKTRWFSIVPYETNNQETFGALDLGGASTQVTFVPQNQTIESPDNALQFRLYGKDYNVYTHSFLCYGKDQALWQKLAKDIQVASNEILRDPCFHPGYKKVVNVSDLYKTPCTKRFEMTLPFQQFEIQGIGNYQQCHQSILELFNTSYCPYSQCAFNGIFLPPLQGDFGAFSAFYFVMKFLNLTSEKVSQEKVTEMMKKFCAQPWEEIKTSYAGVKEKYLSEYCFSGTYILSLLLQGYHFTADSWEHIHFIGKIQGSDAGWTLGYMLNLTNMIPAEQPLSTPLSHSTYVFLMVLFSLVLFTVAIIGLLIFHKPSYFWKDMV

T2: recombinant human CD39 (in-house product, 38 to 478 aa of Accession No. NM_001776.6) (human, UniProt P49961 38-478)
T2 construct: also called rhCD39; human CD39-ECD; not shown: Myc and His tags at the C-terminus are named only for the PE-lab
T2 sequence (looked up): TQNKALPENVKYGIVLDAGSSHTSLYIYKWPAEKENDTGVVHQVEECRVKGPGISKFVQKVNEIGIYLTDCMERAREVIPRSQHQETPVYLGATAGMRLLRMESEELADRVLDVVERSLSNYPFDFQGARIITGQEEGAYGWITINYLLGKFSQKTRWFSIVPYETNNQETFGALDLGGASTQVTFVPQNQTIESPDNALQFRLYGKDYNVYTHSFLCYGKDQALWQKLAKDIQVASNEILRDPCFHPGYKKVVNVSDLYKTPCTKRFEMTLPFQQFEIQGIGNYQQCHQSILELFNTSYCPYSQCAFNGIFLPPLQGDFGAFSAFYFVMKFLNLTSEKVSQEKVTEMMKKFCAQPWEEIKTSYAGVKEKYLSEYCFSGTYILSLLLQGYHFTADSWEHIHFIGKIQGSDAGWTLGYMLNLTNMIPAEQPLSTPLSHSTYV


Experiments:
[1] = target: T1, human CD39 (Accession No. NM_001776.6) …; assay: flow cytometry, 293T/CD39 cells, KD from MFI
[2] = target: T1, human CD39 (Accession No. NM_001776.6) …; assay: flow cytometry, 293T/TIM-3 + CD39 cells, KD from MFI
[3] = target: T1, human CD39 (Accession No. NM_001776.6) …; assay: flow cytometry, Jurkat/CD39 cells, KD from MFI
[4] = target: T3, human TIM-3 (Accession No. JX049979.1) stably expressed on cells (human, UniProt Q8TDQ0 22-301); assay: flow cytometry, Jurkat/TIM-3 cells, KD from MFI
T3 construct: whole, on cells; On Jurkat or 293T cells; also called Jurkat/TIM-3; 293T/TIM-3

[5] = target: T2, recombinant human CD39 (in-house …); assay: SPR Biacore8K, antibody captured on anti-human IgG, antigen as analyte
[6] = target: T4, biotinylated human TIM-3-Fc antigen (in-house product, SEQ ID No: 118) (human, biotinylated); assay: flow cytometry, inhibition of biotinylated TIM-3-Fc binding to phosphatidylserine on apoptotic Jurkat cells
[7] = target: T4, biotinylated human TIM-3-Fc antigen …; assay: competition ELISA: human Galectin-9 coated, biotinylated human TIM-3-Fc pre-mixed with the antibody dilution series, Streptavidin-HRP, A450; blocked ligand: human Galectin-9
[8] = target: T1, human CD39 (Accession No. NM_001776.6) …; assay: flow cytometry, Jurkat/TIM-3 + CD39 cells, KD from MFI

Row | Binder | Kd [1] | Kd [2] | Kd [3] | Kd [4] | Kd [5] | IC50 [6] | IC50 (read off the curve) [7] | Kd [8] | koff [5] | kon [5]
1 | 6-3hIG_Hu003_Ct (bispecific antibody) chain 1: QVQLVQSGAELVKPGASVKLSCKASGFSIKDTYVHWVKQAPGKGLEWIGKIDPANVNTKFDPKFQGRVTITADTSTNTAYLQLSSLRSEDTAVYYCALYGYDDDAYYFDYWGQGTLVTVSSGGGGSGGGGSGGGGSGGGGSEIVLTQSPASLSVSPGERATISCRASESVDNYGISFMNWFQQKPGQAPKLLIYAASNQGSGVPARFSGSGSGTDFTLTISSLEPEDFAVYYCQQSKEVPYTFGQGTKLEIK chain 2: QVQLQESGGGLVKPGGSLKLSCAASGFTFSSYYMSWVRQTPDKRLEWVATISNSGGSTYYPDSVKDRFTISRDNAKNTLYLQMSSLKSEDTAMYYCARDPYYTNYVPMDYWGQGTMVTVSSGGGGSGGGGSGGGGSGGGGSDIVMTQSPSFLSASVGDRVTITCKASQYVDTYVAWYQQRPGKAPKPLIYSASTRHTGVPSRFSGSGSGTEFTLTISSLQPEDFATYFCAQYSSSPLTFGGGTKLELK |  |  | 237 nM | 1.92 nM | 0.355 nM | 16.1 nM | ~2 nM |  |  | 
2 | mAnE67_LA (antibody, V domains shown, also called IgG1-LALA antibody of anti-CD39 antibody mAnE67) VH: EVQLVESGGGLVKPGGSRKLSCAASGFTFSDYGMHWVRQAPEKGLEWVAYISSGSSIIYYADTVKGRFTISRDNAKNTLFLQMTGLRSEDTAMYYCARKDYPYAMDYWGQGTSLAVSS VL: SIVMTQTPKFMSTSVGDRVSVTCKASQNVGTNVAWYQQKPGQSPKALIYWASNRFTGVPDRFTGSGSGTDFTLTISNVQSEDLADYFCQQYSSSPYTFGSGTKLEIK | 1.8 nM | 3.66 nM |  |  |  |  |  |  |  | 
3 | I67_LA (antibody, V domains shown, also called IgG1-LALA antibody of anti-CD39 antibody I67) VH: DVQLQESGPSLVQPSQSLSINCTVSGFSLSSYGVHWVRQSPGKGLEWLGVIWRRGSTDYNAAFMSRLSITKDNSKSQVFFKMNRLQADDTATYYCAKGISTATSWFAYWGQGTLVTVSA VL: DIVMTQSHKFMSTSVGDRVSVTCKASQNVGTNVAWYQQKPGQSPKALIYSASYRYSGVPDRFTGSGSGTDFTLTISNVQSEDLAEYFCQQYNSYPLTFGAGTKLELK | 1.73 nM | 4.19 nM |  |  |  |  |  |  |  | 
4 | Tre291_LA (antibody, V domains shown) VH: QVQLKQSGPGLVQPSQSLSITCTVSGFSLTSYGVHWVRQSPGKGLEWLGVIWRRGSTDYNAAFMSRLSITKDTSKSQVFFKMNSLQTDDTAIYYCAGVRGDAMDYWGQGTSVTVSS VL: DIVMTQSHKSMSTSVGDRVSVTCKASQNVGTNVAWYQQKPGQSPKALIYSASYRYSGVPDRFTGSGSGTDFTLTISNVQSEDLAEYFCQQYNSYPLTFGGGTKLEIK | 2.44 nM | 4.79 nM |  |  |  |  |  |  |  | 

Next, values leading:

Row | Kd [1] | Kd [2] | Kd [3] | Kd [4] | Kd [5] | IC50 [6] | IC50 (read off the curve) [7] | Kd [8] | koff [5] | kon [5] | Binder
5 | 2.67 nM | 5.09 nM |  |  |  |  |  |  |  |  | T86_LA (antibody, V domains shown, also called IgG1-LALA antibody of anti-CD39 antibody T86) VH: QIQLVQSGPELKKPGETVKISCEASGYTFINYGMNWVKQAPGKGLKWMGWINTYTGEPTYADDFKGRFAFSLETSANTAYLQINNLKNEDTATYFCARKGYYGYPNYYAMDYWGQGTSVTVSS VL: DIVMTQSQKFMSTSVGDRVSITCKASQNVGTAVAWYQQKPGQSPKLLIYSASNRYTGVPDRFTGSGSGTDFTLTISNMQSEDLADYFCQQYSSYPITFGTGTKLEIK
6 |  |  | 18.8 nM | 2.77 nM | 1.74 nM | 30.8 nM | ~2 nM |  |  |  | T86_Hu003_Ct (bispecific antibody) chain 1: QIQLVQSGPELKKPGETVKISCEASGYTFINYGMNWVKQAPGKGLKWMGWINTYTGEPTYADDFKGRFAFSLETSANTAYLQINNLKNEDTATYFCARKGYYGYPNYYAMDYWGQGTSVTVSSGGGGSGGGGSGGGGSGGGGSDIVMTQSQKFMSTSVGDRVSITCKASQNVGTAVAWYQQKPGQSPKLLIYSASNRYTGVPDRFTGSGSGTDFTLTISNMQSEDLADYFCQQYSSYPITFGTGTKLEIK chain 2: QVQLQESGGGLVKPGGSLKLSCAASGFTFSSYYMSWVRQTPDKRLEWVATISNSGGSTYYPDSVKDRFTISRDNAKNTLYLQMSSLKSEDTAMYYCARDPYYTNYVPMDYWGQGTMVTVSSGGGGSGGGGSGGGGSGGGGSDIVMTQSPSFLSASVGDRVTITCKASQYVDTYVAWYQQRPGKAPKPLIYSASTRHTGVPSRFSGSGSGTEFTLTISSLQPEDFATYFCAQYSSSPLTFGGGTKLELK
7 | 3.56 nM | 16.9 nM | 2.18 nM |  | 4.28 nM |  |  | 2.25 nM | 0.000823 s⁻¹ | 192000 M⁻¹ s⁻¹ | T86_sc (antibody, scFv-Fc homodimer, anti-CD39 (mouse variable regions); also called scFv-Fc homodimeric antibody of anti-CD39_scFv antibody T86; not shown: linker and Fc-LALA (human IgG1 Fc with L234A and L235A)) scFv: QIQLVQSGPELKKPGETVKISCEASGYTFINYGMNWVKQAPGKGLKWMGWINTYTGEPTYADDFKGRFAFSLETSANTAYLQINNLKNEDTATYFCARKGYYGYPNYYAMDYWGQGTSVTVSSGGGGSGGGGSGGGGSGGGGSDIVMTQSQKFMSTSVGDRVSITCKASQNVGTAVAWYQQKPGQSPKLLIYSASNRYTGVPDRFTGSGSGTDFTLTISNMQSEDLADYFCQQYSSYPITFGTGTKLEIK
8 |  |  | 22.6 nM | 2.13 nM | 2.79 nM | 28.3 nM | ~1 nM |  |  |  | Tre291_Hu003_Ct (bispecific antibody) chain 1: QVQLKQSGPGLVQPSQSLSITCTVSGFSLTSYGVHWVRQSPGKGLEWLGVIWRRGSTDYNAAFMSRLSITKDTSKSQVFFKMNSLQTDDTAIYYCAGVRGDAMDYWGQGTSVTVSSGGGGSGGGGSGGGGSGGGGSDIVMTQSHKSMSTSVGDRVSVTCKASQNVGTNVAWYQQKPGQSPKALIYSASYRYSGVPDRFTGSGSGTDFTLTISNVQSEDLAEYFCQQYNSYPLTFGGGTKLEIK chain 2: QVQLQESGGGLVKPGGSLKLSCAASGFTFSSYYMSWVRQTPDKRLEWVATISNSGGSTYYPDSVKDRFTISRDNAKNTLYLQMSSLKSEDTAMYYCARDPYYTNYVPMDYWGQGTMVTVSSGGGGSGGGGSGGGGSGGGGSDIVMTQSPSFLSASVGDRVTITCKASQYVDTYVAWYQQRPGKAPKPLIYSASTRHTGVPSRFSGSGSGTEFTLTISSLQPEDFATYFCAQYSSSPLTFGGGTKLELK
9 |  |  | 2.69 nM | 1.49 nM | 2.26 nM | 24.7 nM |  |  |  |  | mAnE67_Hu003_Ct (bispecific antibody) chain 1: EVQLVESGGGLVKPGGSRKLSCAASGFTFSDYGMHWVRQAPEKGLEWVAYISSGSSIIYYADTVKGRFTISRDNAKNTLFLQMTGLRSEDTAMYYCARKDYPYAMDYWGQGTSLAVSSGGGGSGGGGSGGGGSGGGGSSIVMTQTPKFMSTSVGDRVSVTCKASQNVGTNVAWYQQKPGQSPKALIYWASNRFTGVPDRFTGSGSGTDFTLTISNVQSEDLADYFCQQYSSSPYTFGSGTKLEIK chain 2: QVQLQESGGGLVKPGGSLKLSCAASGFTFSSYYMSWVRQTPDKRLEWVATISNSGGSTYYPDSVKDRFTISRDNAKNTLYLQMSSLKSEDTAMYYCARDPYYTNYVPMDYWGQGTMVTVSSGGGGSGGGGSGGGGSGGGGSDIVMTQSPSFLSASVGDRVTITCKASQYVDTYVAWYQQRPGKAPKPLIYSASTRHTGVPSRFSGSGSGTEFTLTISSLQPEDFATYFCAQYSSSPLTFGGGTKLELK
10 |  |  | 14.1 nM | 1.86 nM | 1.63 nM | 27.2 nM | ~2 nM |  |  |  | I67_Hu003_Ct (bispecific antibody) chain 1: DVQLQESGPSLVQPSQSLSINCTVSGFSLSSYGVHWVRQSPGKGLEWLGVIWRRGSTDYNAAFMSRLSITKDNSKSQVFFKMNRLQADDTATYYCAKGISTATSWFAYWGQGTLVTVSAGGGGSGGGGSGGGGSGGGGSDIVMTQSHKFMSTSVGDRVSVTCKASQNVGTNVAWYQQKPGQSPKALIYSASYRYSGVPDRFTGSGSGTDFTLTISNVQSEDLAEYFCQQYNSYPLTFGAGTKLELK chain 2: QVQLQESGGGLVKPGGSLKLSCAASGFTFSSYYMSWVRQTPDKRLEWVATISNSGGSTYYPDSVKDRFTISRDNAKNTLYLQMSSLKSEDTAMYYCARDPYYTNYVPMDYWGQGTMVTVSSGGGGSGGGGSGGGGSGGGGSDIVMTQSPSFLSASVGDRVTITCKASQYVDTYVAWYQQRPGKAPKPLIYSASTRHTGVPSRFSGSGSGTEFTLTISSLQPEDFATYFCAQYSSSPLTFGGGTKLELK

From patent US20260085127A1 (BRIGHTPATH BIOTHERAPEUTICS, published 2026)
